The record followed here is PMC12493207, “Annexin A2 interferes with complement regulation within the glomerulus” (The Journal of Biological Chemistry, 2025).

The target in this assay is T1, recombinant murine Factor H (murine, UniProt P06909 19-1234).
T1 construct: murine complement Factor H, residues 19-1234 of UniProt P06909; also called FH; source: CHO cells, transfected, purified from the supernatant (HiTrap His column)
Put plainly: ELISA; Figure 1A-B: by the legend varying concentrations of Factor H immobilised on the plate, a fixed concentration of rA2 or of an annexin A2 fragment added, bound annexin A2 detected with an antibody (the methods tell the reverse: 800 ng rA2 adsorbed, Factor H 20 μg/ml in TBS with 2 mM Ca, 3 h, room temperature). As to conditions: both partners purified.

T1 sequence (P06909 19-1234): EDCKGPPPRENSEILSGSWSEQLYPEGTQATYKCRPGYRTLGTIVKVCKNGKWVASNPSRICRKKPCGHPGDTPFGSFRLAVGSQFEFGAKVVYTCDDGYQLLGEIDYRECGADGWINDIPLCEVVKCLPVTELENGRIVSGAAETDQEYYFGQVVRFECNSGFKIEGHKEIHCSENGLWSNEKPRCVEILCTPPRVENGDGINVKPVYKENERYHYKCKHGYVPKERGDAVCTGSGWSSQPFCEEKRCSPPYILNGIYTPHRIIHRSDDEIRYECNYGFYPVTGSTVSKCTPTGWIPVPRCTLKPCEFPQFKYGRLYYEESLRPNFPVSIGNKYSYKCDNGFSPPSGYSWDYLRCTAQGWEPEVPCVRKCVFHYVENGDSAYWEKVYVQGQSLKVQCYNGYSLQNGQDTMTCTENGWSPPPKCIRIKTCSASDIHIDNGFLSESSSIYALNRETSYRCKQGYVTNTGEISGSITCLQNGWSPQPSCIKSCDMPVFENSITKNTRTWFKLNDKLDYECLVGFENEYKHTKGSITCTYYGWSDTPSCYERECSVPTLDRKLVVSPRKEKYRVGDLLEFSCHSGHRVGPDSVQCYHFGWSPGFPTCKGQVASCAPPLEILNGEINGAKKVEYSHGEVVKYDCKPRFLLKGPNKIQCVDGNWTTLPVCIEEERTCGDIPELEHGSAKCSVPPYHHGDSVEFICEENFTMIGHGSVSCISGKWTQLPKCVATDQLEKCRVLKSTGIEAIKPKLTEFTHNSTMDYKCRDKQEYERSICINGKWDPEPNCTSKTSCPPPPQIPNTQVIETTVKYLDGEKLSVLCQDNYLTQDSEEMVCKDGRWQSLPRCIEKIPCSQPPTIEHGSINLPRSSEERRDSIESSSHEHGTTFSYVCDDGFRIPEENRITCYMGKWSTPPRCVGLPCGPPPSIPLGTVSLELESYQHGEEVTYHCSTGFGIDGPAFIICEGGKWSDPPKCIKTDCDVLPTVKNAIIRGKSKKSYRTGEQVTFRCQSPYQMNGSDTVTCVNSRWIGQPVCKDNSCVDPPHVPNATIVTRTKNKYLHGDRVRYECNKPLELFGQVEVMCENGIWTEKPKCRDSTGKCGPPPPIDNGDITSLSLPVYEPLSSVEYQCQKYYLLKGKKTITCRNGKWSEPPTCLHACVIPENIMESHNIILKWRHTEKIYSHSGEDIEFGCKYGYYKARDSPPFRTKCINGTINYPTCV

B1: recombinant annexin A2 (natural protein, mouse, UniProt P07356 1-339, looked up)
chain: MSTVHEILCKLSLEGDHSTPPSAYGSVKPYTNFDAERDALNIETAVKTKGVDEVTIVNILTNRSNVQRQDIAFAYQRRTKKELPSALKSALSGHLETVILGLLKTPAQYDASELKASMKGLGTDEDSLIEIICSRTNQELQEINRVYKEMYKTDLEKDIISDTSGDFRKLMVALAKGRRAEDGSVIDYELIDQDARELYDAGVKRKGTDVPKWISIMTERSVCHLQKVFERYKSYSPYDMLESIKKEVKGDLENAFLNLVQCIQNKPLYFADRLYDSMKGKGTRDKVLIRIMVSRSEVDMLKIRSEFKRKYGKSLYYYIQQDTKGDYQKALLYLCGGDD
notes: annexin A2, mouse; cDNA reverse transcribed from total mRNA of a C57BL/6 mouse kidney; also called rA2; AnxA2; source: CHO cells, transfected, purified from the supernatant (HiTrap His column)
As for B1, the binding result is reported as “binds”.
